B1: Lag3-Myc, full-length (FL), in HEK293FT cells [not stated] / human FLAG-APLP1, full length [human] (parent complex)
chain 1: GPGKELPVVWAQEGAPVHLPCSLKSPNLDPNFLRRGGVIWQHQPDSGQPTPIPALDLHQGMPSPRQPAPGRYTVLSVAPGGLRSGRQPLHPHVQLEERGLQRGDFSLWLRPALRTDAGEYHATVRLPNRALSCSLRLRVGQASMIASPSGVLKLSDWVLLNCSFSRPDRPVSVHWFQGQNRVPVYNSPRHFLAETFLLLPQVSPLDSGTWGCVLTYRDGFNVSITYNLKVLGLEPVAPLTVYAAEGSRVELPCHLPPGVGTPSLLIAKWTPPGGGPELPVAGKSGNFTLHLEAVGLAQAGTYTCSIHLQGQQLNATVTLAVITVTPKSFGLPGSRGKLLCEVTPASGKERFVWRPLNNLSRSCPGPVLEIQEARLLAERWQCQLYEGQRLLGATVYAAESSSGAHSARRISGDLKGGHLVLVLILGALSLFLLVAGAFGFHWWRKQLLLRRFSALEHGIQPFPAQRKIEELERELETEMGQEPEPEPEPQLEPEPRQL
chain 2: SLAGGSPGAAEAPGSAQVAGLCGRLTLHRDLRTGRWEPDPQRSRRCLRDPQRVLEYCRQMYPELQIARVEQATQAIPMERWCGGSRSGSCAHPHHQVVPFRCLPGEFVSEALLVPEGCRFLHQERMDQCESSTRRHQEAQEACSSQGLILHGSGMLLPCGSDRFRGVEYVCCPPPGTPDPSGTAVGDPSTRSWPPGSRVEGAEDEEEEESFPQPVDDYFVEPPQAEEEEETVPPPSSHTLAVVGKVTPTPRPTDGVDIYFGMPGEISEHEGFLRAKMDLEERRMRQINEVMREWAMADNQSKNLPKADRQALNEHFQSILQTLEEQVSGERQRLVETHATRVIALINDQRRAALEGFLAALQADPPQAERVLLALRRYLRAEQKEQRHTLRHYQHVAAVDPEKAQQMRFQVHTHLQVIEERVNQSLGLLDQNPHLAQELRPQIQELLHSEHLGPSELEAPAPGGSSEDKGGLQPPDSKDDTPMTLPKGSTEQDAASPEKEKMNPLEQYERKVNASVPRGFPFHSSEIQRDELAPAGTGVSREAVSGLLIMGAGGGSLIVLSMLLLRRKKPYGAISHGVVEVDPMLTLEEQQLRELQRHGYENPTYRFLEERP

The variants in the test derive from B1. As to the kind of experiment: co-IP (IP: FLAG, blot Myc-Lag3), band intensity quantified; read off a plot.
With chain 2 L25A, chain 2 T26A, chain 2 H28A, chain 2 D30A, chain 2 C46A, chain 2 L47A, chain 2 Q71A, chain 2 T73A, chain 2 I76A, the response is around 20 AU.

Values taken from publication PMC11143359 (2024).
